Data reported in the supplement of paper PMC12042874.
± gives the uncertainty stated by the source.

assay: amyloid nucleation score (Sup35N fusion, yeast selection) (log enrichment); library NNK3; higher = more nucleation; inactive = no reads after selection
Method in brief: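 Using DiMSum, nucleation scores were taken as the log enrichment of output over input reads, centred on the mode score of non-aggregating sequences. The input and output reads came from Illumina sequencing of plasmid inserts, with sequences under 100 input reads excluded. The yeast were psi-negative, expressed Sup35N fused to peptides of 20 random codons, were induced with 100 μM copper sulfate for 24 hours, and were grown 7 days at 30°C on medium lacking adenine and uracil.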

Row | Substance | amyloid nucleation score
1 | QGHNHYVTILRFIWFLRPAM | inactive
2 | QICRGCRYVNVYYVPLSLDL | 1.32 ± 0.095
3 | QIMIIISMRVSNMCGVSYLG | inactive
4 | QIQGMNSQKRLRLKKP | inactive
5 | QKIVSPRSGGFASPRMRQKV | inactive
6 | QLAKG | inactive
7 | QLFMPGSVVTHRSYFTCMWL | 1.95 ± 0.064
8 | QLGDMNAAALITATASRLVM | inactive
9 | QLRRCLEMARYSKARFRNCM | inactive
10 | QLSHKACLWLSCSSGIPLGS | inactive
11 | QMEKHLRAASVSVCTSQSPV | inactive
12 | QMGVVNLRAKGQQCAQRQSK | inactive
13 | QNNRHISHLGLQGDEQALVY | inactive
14 | QPPAKSMWFSFDMLS | inactive
15 | QQVLVVQNKCEWGRHIA | inactive
16 | QQYSTAYYIHGFTKMVGVVA | 0.298 ± 0.19
17 | QREGSNCAILCLL | inactive
18 | QRIESGPLDY | inactive
19 | QSIARWTVLSFSWRTTSRKS | -0.416 ± 1.2
20 | QSLLSSLLGSYSRLEKLNVD | inactive
21 | QSLVPSFDPNLCQVGVLYCC | -0.654 ± 0.84

Row | Substance | amyloid nucleation score
22 | QSMWH | inactive
23 | QSPSSKAK | inactive
24 | QSQLGPDCRSYTGGERVLDV | inactive
25 | QSRMPCSLFILVNGDHDDMA | inactive
26 | QSTPYYLGFTD | 0.988 ± 0.11
27 | QSYIRKQFRIQSHISFSDNS | inactive
28 | QTAFQRL | inactive
29 | QTAIIANPSVGGWLSNSHVR | inactive
30 | QTIRTMKRGNRISCVPAGHS | inactive
31 | QTNIWYSGPIGSYHC | inactive
32 | QVCYG | inactive
33 | QVFSN | inactive
34 | QVGPWLDNSNSFCDDIKGMC | inactive
35 | QVGSRRNSS | inactive
36 | QVRNSDRFSCIGSANIRKSL | inactive
37 | QVSFFSQIRV | inactive
38 | QVYGINLGSTGNEARYAVRD | inactive
39 | QWFHVSLS | inactive
40 | QWTSFLVLCCTNPRLGSSRV | 2.67 ± 0.073
41 | QYAAMATGNLYLS | inactive
42 | QYCSGSLKFRGVPIFNGDDG | inactive

Row | Substance | amyloid nucleation score
43 | QYCSSCLLWCMKSQGLDMTR | inactive
44 | QYFVP | inactive
45 | QYHNQYHMIKRLYAFRARMG | inactive
46 | QYISIENHPEACMQGSTCYS | inactive
47 | QYKSMAGSLWFNSVQEQASK | inactive
48 | QYLFCVVGGWIVRYLWPWML | inactive
49 | RAFHYNSCKSVSAVLDLNVL | -0.094 ± 0.31
50 | RAGDNIFWTIAKCTRNTHVM | inactive
51 | RAGVKNG | inactive
52 | RAIGLGAFGIRRGGTRKWNE | -1.06 ± 2.5
53 | RAMCIESTYLVMPYTTCNQT | inactive
54 | RAMLLGFSCMVWVPWGQFGK | 0.649 ± 0.22
55 | RANESTLM | inactive
56 | RANVQDMTKISYVFTYTWYV | inactive
57 | RAPAMGL | inactive
58 | RASMYG | inactive
59 | RCDKIWQASVMGSDIRDL | inactive
60 | RCELCMSIKGLAVNNIR | 1.9 ± 0.1
61 | RCKIENVIYM | 2.44 ± 0.058
62 | RCNISTRFLLLWTFSFLLVY | inactive
63 | RCSDWYHFTAQSS | inactive

Row | Substance | amyloid nucleation score
64 | RCTELVKAISLVVVYIYDEG | inactive
65 | RCVLRW | 1.34 ± 0.12
66 | RCVSMEADWVVSAEFTKDVF | inactive
67 | RCYFKYP | 1.32 ± 0.13
68 | RCYKKVYLMLAVRLAPFGLG | inactive
69 | RCYVCRTMRACMVLAAKLEP | inactive
70 | RCYVNYIRTYICAYCFAVNE | 2.39 ± 0.074
71 | RDDMGLESKQDGEP | inactive
72 | RDFTSYGCFVASSSLDRSFL | inactive
73 | RDGFN | inactive
74 | RDIISMIVGWVLLQYLTTTY | -0.888 ± 1
75 | RDLCIPWLCRAFFPAMCVVI | inactive
76 | RDLVPLDDRA | inactive
77 | RDSFVFYVY | inactive
78 | RDSQRSVRVTAIDG | inactive
79 | REDILLRSSFSDSHVGRLKT | inactive
80 | REFPRGWLLGLLCFRLYLLE | inactive
81 | REGRVLVWYSYYKFYTRHYF | 0.004 ± 0.72
